Patent US20040087777A1 (NEURALAB, published 2004)

How the values were obtained:
Test in all cases: rNET
[1] = biological target: T1, … analog, Residue 5 = G
T1 peptide: DAEFGHDSGY
Method: (§1) The rNET epitope map assay provides information about the contribution of individual residues within the epitope to the overall binding activity of the antibody. rNET analysis uses synthesized systematic single substituted peptide analogs. Binding of an antibody being tested is determined against native peptide (native antigen) and against 19 alternative “single substituted” peptides, each peptide being substituted at a first position with one of 19 non-native amino acids for that position. A profile is generated reflecting the effect of substitution at that position with the various non-native residues. Profiles are likewise generated at successive positions along the antigenic peptide. The combined profile, or epitope map, (reflecting substitution at each position with all 19 non-native residues) can then be compared to a map similarly generated for a second antibody.
(§2) Antibodies were tested for binding against the native Aβ peptide [sequence] […] Residues 1-8 were systematically substituted with each of the 19 non-native residues for that position.

[2] = biological target: T2, … analog, Residue 7 = E
T2 peptide: DAEFRHESGY
Method: as §1, §2

[3] = biological target: T3, … analog, Residue 8 = C
T3 peptide: DAEFRHDCGY
Method: as §1, §2

[4] = biological target: T4, … analog, Residue 8 = D
T4 peptide: DAEFRHDDGY
Method: as §1, §2

[5] = biological target: T5, … analog, Residue 8 = E
T5 peptide: DAEFRHDEGY
Method: as §1, §2

[6] = biological target: T6, … analog, Residue 8 = F
T6 peptide: DAEFRHDFGY
Method: as §1, §2

[7] = biological target: T7, … analog, Residue 8 = G
T7 peptide: DAEFRHDGGY
Method: as §1, §2

[8] = biological target: T8, … analog, Residue 8 = H
T8 peptide: DAEFRHDHGY
Method: as §1, §2

[9] = biological target: T9, … analog, Residue 8 = I
T9 peptide: DAEFRHDIGY
Method: as §1, §2

[10] = biological target: T10, … analog, Residue 8 = L
T10 peptide: DAEFRHDLGY
Method: as §1, §2

[11] = biological target: T11, … analog, Residue 8 = M
T11 peptide: DAEFRHDMGY
Method: as §1, §2

[12] = biological target: T12, … analog, Residue 8 = P
T12 peptide: DAEFRHDPGY
Method: as §1, §2

[13] = biological target: T13, … analog, Residue 8 = Q
T13 peptide: DAEFRHDQGY
Method: as §1, §2

[14] = biological target: T14, … analog, Residue 8 = R
T14 peptide: DAEFRHDRGY
Method: as §1, §2

[15] = biological target: T15, … analog, Residue 8 = T
T15 peptide: DAEFRHDTGY
Method: as §1, §2

[16] = biological target: T16, … analog, Residue 8 = V
T16 peptide: DAEFRHDVGY
Method: as §1, §2

[17] = biological target: T17, … analog, Residue 8 = W
T17 peptide: DAEFRHDWGY
Method: as §1, §2

[18] = biological target: T18, … analog, Residue 8 = Y
T18 peptide: DAEFRHDYGY
Method: as §1, §2

[19] = biological target: T19, … analog, Residue 1 = A
T19 peptide: AAEFRHDSGY
Method: as §1, §2

[20] = biological target: T20, … analog, Residue 1 = C
T20 peptide: CAEFRHDSGY
Method: as §1, §2

[21] = biological target: T21, … analog, Residue 1 = E
T21 peptide: EAEFRHDSGY
Method: as §1, §2

[22] = biological target: T22, … analog, Residue 1 = F
T22 peptide: FAEFRHDSGY
Method: as §1, §2

[23] = biological target: T23, … analog, Residue 1 = G
T23 peptide: GAEFRHDSGY
Method: as §1, §2

[24] = biological target: T24, … analog, Residue 1 = I
T24 peptide: IAEFRHDSGY
Method: as §1, §2

[25] = biological target: T25, … analog, Residue 1 = K
T25 peptide: KAEFRHDSGY
Method: as §1, §2

[26] = biological target: T26, … analog, Residue 1 = L
T26 peptide: LAEFRHDSGY
Method: as §1, §2

[27] = biological target: T27, … analog, Residue 1 = M
T27 peptide: MAEFRHDSGY
Method: as §1, §2

[28] = biological target: T28, … analog, Residue 1 = N
T28 peptide: NAEFRHDSGY
Method: as §1, §2

[29] = biological target: T29, … analog, Residue 1 = P
T29 peptide: PAEFRHDSGY
Method: as §1, §2

[30] = biological target: T30, … analog, Residue 1 = Q
T30 peptide: QAEFRHDSGY
Method: as §1, §2

[31] = biological target: T31, … analog, Residue 1 = S
T31 peptide: SAEFRHDSGY
Method: as §1, §2

[32] = biological target: T32, … analog, Residue 1 = T
T32 peptide: TAEFRHDSGY
Method: as §1, §2

[33] = biological target: T33, … analog, Residue 1 = W
T33 peptide: WAEFRHDSGY
Method: as §1, §2

[34] = biological target: T34, … analog, Residue 1 = Y
T34 peptide: YAEFRHDSGY
Method: as §1, §2
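Further: antibody binding measured against single-substituted peptide analogs, each epitope position replaced by every one of 19 non-native amino acids, compared with binding to the native Aβ peptide.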

B1: murine monoclonal antibody 3D6 (antibody, mouse IgG2b, V domains shown)
VH: EVKLVESGGGLVKPGASLKLSCAASGFTFSNYGMSWVRQNSDKRLEWVASIRSGGGRTYYSDNVKGRFTISRENAKNTLYLQMSSLKSEDTALYYCVRYDHYSGSSDYWGQGTTVTVSS
VL: not shown
notes: also called mAb 3D6; m3D6
OD [1]: 0.485 OD | OD [2]: 0.565 OD | OD [3]: 0.583 OD | OD [4]: 0.586 OD | OD [5]: 0.601 OD | OD [6]: 0.586 OD | OD [7]: 0.569 OD | OD [8]: 0.559 OD | OD [9]: 0.568 OD | OD [10]: 0.57 OD | OD [11]: 0.571 OD | OD [12]: 0.574 OD | OD [13]: 0.59 OD | OD [14]: 0.589 OD | OD [15]: 0.586 OD | OD [16]: 0.578 OD | OD [17]: 0.567 OD | OD [18]: 0.574 OD | OD [19]: 0.464 OD | OD [20]: 0.45 OD | OD [21]: 0.576 OD | OD [22]: 0.034 OD | OD [23]: 0.569 OD | OD [24]: 0.048 OD | OD [25]: 0.033 OD | OD [26]: 0.073 OD | OD [27]: 0.039 OD | OD [28]: 0.587 OD | OD [29]: 0.069 OD | OD [30]: 0.441 OD | OD [31]: 0.569 OD | OD [32]: 0.45 OD | OD [33]: 0.031 OD | OD [34]: 0.341 OD
